The subject of data set [1] is HepG2 cells. The data set can be described thus: Uptake and degradation of 125I-LDL by HepG2 cells. Type of data set: cell-based, human. The note with it: for Degradation % / Uptake %: % of LPDS control (100); for Degradation ng125I-LDL/mg cell protein / Uptake ng125I-LDL/mg cell protein: HepG2, 24 h preincubation in 5% LPDS, then 125I-LDL 7.5 mg/L for 5 h, mean ± SD. An excerpt: The established human hepatoma cell line (HepG2) was obtained from American Type Culture Collection (Rockville, Md.). Eagle's minimum essential medium (MEM), fetal calf serum, trypsin-EDTA (1×), penicillin (10^5 U/L), streptomycin (100 g/L), tricine buffer (1 mmol/L, pH 7.4) and non-essential amino acid solutions (100×) were from GIBCO (Madison, Wis.). Petri dishes were from COSTAR (Cambridge, Mass.). Filters were from Millipore (Bedford, Mass.). […] Sephadex G25 columns (PD10) were from Pharmacia Biotech (Uppsala, Sweden). LDH and MTT kit were from Sigma Diagnostics (Milano-Italy). All other chemicals were of analytical grade from Merck (Darmstadt, Germany). […] For experiments designed to evaluate the LDL receptor modulation, cells were seeded in 35 mm plastic dishes (3-5×10^5 cells) and used just before reaching confluence. In all cell culture experiments, the medium was changed every 2-3 days. In order to assess cell viability, culture media from cells exposed to eα′ at different concentrations were tested by methyltetrazolium salts (MTT) assay, essentially as described in ref. 9. Cell enzyme leakage was determined by measuring lactate dehydrogenase (LDH) activity, using a kinetic (LDH/LD) diagnostic kit (Sigma Diagnostics). […] Human lipoprotein deficient serum (LPDS) was prepared as previously described.
Monolayers of cells were preincubated at 37° C. for 24 h in MEM supplemented with 5 g/100 g LPDS to up-regulate the LDL-receptors, in the presence/absence of eα′ at different concentrations listed in Table or 3.5 μmol/L α′ purified subunit or 1.0 μmol/L simvastatin.
Differences in cell uptake and degradation of LDL after cell incubation with eα′ at different concentrations were determined by ANOVA followed by Dunnett's test. Values are expressed as means±SD; P values<0.05 were considered as statistically significant.

For data set [2], the system named is LDL-R. The following applies: Hep G2 cells exposed to the peptide at 100 μM; cited from earlier work.
The test system of data set [3] is HepG2 cells. Description: Cell enzyme leakage, lactate dehydrogenase (LDH) activity. Type of data set: cell-based, human. The following applies: all concentrations tested; data not shown. An excerpt: (§1) The established human hepatoma cell line (HepG2) was obtained from American Type Culture Collection (Rockville, Md.). Eagle's minimum essential medium (MEM), fetal calf serum, trypsin-EDTA (1×), penicillin (10^5 U/L), streptomycin (100 g/L), tricine buffer (1 mmol/L, pH 7.4) and non-essential amino acid solutions (100×) were from GIBCO (Madison, Wis.). Petri dishes were from COSTAR (Cambridge, Mass.). Filters were from Millipore (Bedford, Mass.). The Protein Coomassie Plus Protein Assay kit was purchased from Pierce (Rockford, Ill., USA). ^125Iodine, carrier free, in 100 mmol/L NaOH, was from Perkin Elmer Life Sciences (Boston, Mass.). Sephadex G25 columns (PD10) were from Pharmacia Biotech (Uppsala, Sweden). LDH and MTT kit were from Sigma Diagnostics (Milano-Italy). All other chemicals were of analytical grade from Merck (Darmstadt, Germany). Cells were grown in monolayers in 90 mm-diameter Petri dishes, and maintained at 37° C. in a humidified atmosphere of 95% air, 5% CO2 in MEM supplemented with 10% fetal calf serum (FCS), non essential amino acid solution (1%, v/v), penicillin (10^5 U/L), streptomycin (0.1 g/L), tricine buffer (20 mmol/L, pH 7.4), NaHCO3 (24 mmol/L) and sodium pyruvate (0.11 g/L). […] Cell enzyme leakage was determined by measuring lactate dehydrogenase (LDH) activity, using a kinetic (LDH/LD) diagnostic kit (Sigma Diagnostics). […]

In data set [4] the test system is HepG2 cells. The data set can be described thus: Cell viability by methyltetrazolium salts (MTT) assay. It is filed as cell-based, human. The following applies: all concentrations tested; data not shown.
Text: as §1

This is an account of results in US8569455B2, “Cloning, yeast expression, purification and biological activity of the extension region of the soybean 7S globulin alfa' subunit involved in HEP G2 cell cholesterol homeostasis” (Indena S.p.A., priority 2009, dated 2013).

Marks after values point to notes of the source that are not given here.

In the case of `CCC(C)(C)C(=O)O[C@H]1C[C@@H](C)C=C2C=C[C@H](C)[C@H](CC[C@@H]3C[C@@H](O)CC(=O)O3)[C@H]21` [Simvastatin, simvastatin, reference compound], in data set [1] (1.0 μmol/L), the Degradation % stood at 179%, the Uptake % was 200%, the “Degradation ng125I-LDL/mg cell protein” value is recorded as 143 ± 7.9** ng^125 I-LDL/mg cell protein and the “Uptake ng125I-LDL/mg cell protein” value was 188 ± 10** ng^125 I-LDL/mg cell protein.

“FVVNATSN (Glycine max) [LDL-R transcription stimulating peptide deriving from the 7S globulin β chain]”: the “Increased LDL-R transcription” value in data set [2] is recorded as “+148%”.

B1: eα′: recombinant N-terminal extension region of the soybean 7S globulin α′ subunit, expressed in Pichia pastoris, about 20 kDa, SEQ ID NO: 1 (protein)
chain: AVEEEEECEEGQIPRPRPQHPERERQQHGEKEEDEGEQPRPFPFPRPRQPHQEEEHEQKEEHEWHRKEEKHGGKGSEEEQDEREHPRPHQPHQKEEEKHEWQHKQEKHQGKESEEEEEDQDEDEEQDKESQESEGSESQREP
modifications: Glycine max
In the case of B1, in data set [1] (0.5 μmol/L), the Degradation % is recorded as 125%, the Uptake % is reported as 120%, the “Degradation ng125I-LDL/mg cell protein” value was 100 ± 10* ng^125 I-LDL/mg cell protein and the “Uptake ng125I-LDL/mg cell protein” value was 113 ± 7.1* ng^125 I-LDL/mg cell protein. In data set [1] (1.0 μmol/L), the Degradation % stood at 148%, the Uptake % is on record as 146%, the “Degradation ng125I-LDL/mg cell protein” value is recorded as 118 ± 9.3* ng^125 I-LDL/mg cell protein and the “Uptake ng125I-LDL/mg cell protein” value is 138 ± 9.2* ng^125 I-LDL/mg cell protein. In data set [1] (2.0 μmol/L), the Degradation % was 196%, the Uptake % came out at 179%, the “Degradation ng125I-LDL/mg cell protein” value is given as 157 ± 8.7** ng^125 I-LDL/mg cell protein and the “Uptake ng125I-LDL/mg cell protein” value is given as 169 ± 6.7** ng^125 I-LDL/mg cell protein. Besides, the “Cellular toxicity, LDH assay” value in data set [3] is listed as “At no concentration of eα′ was there any evidence of cellular toxicity”. For the same molecule, the “Cellular toxicity, MTT assay” value in data set [4] is given as “At no concentration of eα′ was there any evidence of cellular toxicity”.

B2: 7S α′ subunit: purified full size α′ subunit of the soybean 7S globulin, around 71 kDa, positive control (protein)
chain: VEEEEECEEGQIPRPRPQHPERERQQHGEKEEDEGEQPRPFPFPRPRQPHQEEEHEQKEEHEWHRKEEKHGGKGSEEEQDEREHPRPHQPHQKEEEKHEWQHKQEKHQGKESEEEEEDQDEDEEQDKESQESEGSESQREPRRHKNKNPFHFNSKRFQTLFKNQYGHVRVLQRFNKRSQQLQNLRDYRILEFNSKPNTLLLPHHADADYLIVILNGTAILTLVNNDDRDSYNLQSGDALRVPAGTTFYVVNPDNDENLRMIAGTTFYVVNPDNDENLRMITLAIPVNKPGRFESFFLSSTQAQQSYLQGFSKNILEASYDTKFEEINKVLFGREEGQQQGEERLQESVIVEISKKQIRELSKHAKSSSRKTISSEDKPFNLGSRDPIYSNKLGKLFEITQRNPQLRDLDVFLSVVDMNEGALFLPHFNSKAIVVLVINEGEANIELVGIKEQQQRQQQEEQPLEVRKYRAELSEQDIFVIPAGYPVMVNATSDLNFFAFGINAENNQRNFLAGSKDNVISQIPSQVQELAFPRSAKDIENLIKSQSESYFVDAQPQQKEEGNKGRKGPLSSILRAFY
modifications: Glycine max
notes: purified full size α′ subunit of the soybean 7S globulin, around 71 kDa, positive control
For B2, in data set [1] (3.5 μmol/L), the Degradation % is reported as 160%, the Uptake % is recorded as 164%, the “Degradation ng125I-LDL/mg cell protein” value is 128 ± 4.8* ng^125 I-LDL/mg cell protein and the “Uptake ng125I-LDL/mg cell protein” value is 154 ± 9.1* ng^125 I-LDL/mg cell protein.
